Reference: US20160031996A1 (CSL, published 2016)
Changes are numbered by the printed parent chain.

What was measured:
Assay in all cases: Western blot, supernatants of 293FS cells
[1] = target: T1, soluble human IL-3Rα 1-306-His Y67A (human, UniProt P26951 19-307)
T1 construct: supernatant of 293FS cells; also called Y67, soluble alanine
T1 sequence: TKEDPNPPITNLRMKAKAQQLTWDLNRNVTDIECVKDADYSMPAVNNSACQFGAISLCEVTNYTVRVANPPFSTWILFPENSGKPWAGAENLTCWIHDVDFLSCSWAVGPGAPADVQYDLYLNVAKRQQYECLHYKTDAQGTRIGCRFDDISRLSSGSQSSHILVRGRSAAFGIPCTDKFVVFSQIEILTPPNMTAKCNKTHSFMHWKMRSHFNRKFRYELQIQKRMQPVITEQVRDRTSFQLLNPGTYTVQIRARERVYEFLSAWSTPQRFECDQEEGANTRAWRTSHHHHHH

[2] = target: T2, soluble human IL-3Rα 1-306-His E51A (human, UniProt P26951 19-307)
T2 construct: supernatant of 293FS cells; also called E51, soluble alanine
T2 sequence: T1 sequence with E33A, A49Y

[3] = target: T3, soluble human IL-3Rα 1-306-His W93A (human, UniProt P26951 19-307)
T3 construct: supernatant of 293FS cells; also called W93, soluble alanine
T3 sequence: T1 sequence with A49Y, W75A

[4] = target: T4, soluble human IL-3Rα 1-306-His P88A (human, UniProt P26951 19-307)
T4 construct: supernatant of 293FS cells; also called P88, soluble alanine
T4 sequence: T1 sequence with A49Y, P70A

[5] = target: T5, soluble human IL-3Rα 1-306-His P97A (human, UniProt P26951 19-307)
T5 construct: supernatant of 293FS cells; also called P97, soluble alanine
T5 sequence: T1 sequence with A49Y, P79A

[6] = target: T6, soluble human IL-3Rα 1-306-His I50A (human, UniProt P26951 19-307)
T6 construct: supernatant of 293FS cells; also called I50, soluble alanine
T6 sequence: T1 sequence with I32A, A49Y

[7] = target: T7, soluble human IL-3Rα 1-306-His F70A (human, UniProt P26951 19-307)
T7 construct: supernatant of 293FS cells; also called F70, soluble alanine
T7 sequence: T1 sequence with A49Y, F52A

- binding result [1]: no binding
- binding result [2]: no binding
- binding result [3]: no binding
- binding result [4]: no binding
- binding result [5]: no binding
- binding result [6]: no binding
- binding result [7]: no binding
B1: antibody CSL362 (antibody, V domains shown)
VH: EVQLVQSGAEVKKPGESLKISCKGSGYSFTDYYMKWARQMPGKGLEWMGDIIPSNGATFYNQKFKGQVTISADKSISTTYLQWSSLKASDTAMYYCARSHLLRASWFAYWGQGTMVTVSS
VL: DIVMTQSPDSLAVSLGERATINCESSQSLLNSGNQKNYLTWYQQKPGQPPKPLIYWASTRESGVPDRFSGSGSGTDFTLTISSLQAEDVAVYYCQNDYSYPYTFGQGTKLEIKR
